Measured values from patent publication US20250277196A1, “EPSPS MUTANTS AND METHOD OF ITS USES” (CROPEDIT BIOTECHNOLOGY INC., priority 2021, published 2025).

B1: 1-552: rice EPSPS with G172A, P177S, K399N, V403A and T466S mutations (protein)
chain: MAAKAEEIVLQPIREISGAVQLPGSKSLSNRILLLSALSEGTTVVDNLLNSEDVHYMLEALKALGLSVEADKVAKRAVVVGCGGKFPVEKDAKEEVQLFLGNAATAMRSLTAAVTAAGGNATYVLDGVPRMRERPIGDLVVGLKQLGADVDCFLGTECPPVRVKGIGGLPGGKVKLSGSISSQYLSALLMAAPLALGDVEIEIIDKLISIPYVEMTLRLMERFGVKAEHSDSWDRFYIKGGQKYKSPGNAYVEGDASSASYFLAGAAITGGTVTVQGCGTTSLQGDVKFAEVLEMMGAKVTWTDTSVTVTGPPREPYGKKHLKAVDVNMNNMPDAAMTLAVVALFADGPTAIRDVASWRVKETERMVAIRTELTKLGASVEEGPDYCIITPPEKLNITAIDTYDDHRMAMAFSLAACADVPVTIRDPGCTRKTFPNYFDVLSTFVRN
modifications: This sequence is synthesized in lab.
notes: rice EPSPS with G172A, P177S, K399N, V403A and T466S mutations
B2: 3-33: rice EPSPS with G172A, P177S, V208A, L264H, V403A and R514K mutations (protein)
chain: MAAKAEEIVLQPIREISGAVQLPGSKSLSNRILLLSALSEGTTVVDNLLNSEDVHYMLEALKALGLSVEADKVAKRAVVVGCGGKFPVEKDAKEEVQLFLGNAATAMRSLTAAVTAAGGNATYVLDGVPRMRERPIGDLAVGLKQLGADVDCFLGTECPPVRVKGIGGLPGGKVKLSGSISSQYLSALLMAAPLAHGDVEIEIIDKLISIPYVEMTLRLMERFGVKAEHSDSWDRFYIKGGQKYKSPGNAYVEGDASSASYFLAGAAITGGTVTVQGCGTTSLQGDVKFAEVLEMMGAKVTWTDTSVTVTGPPREPYGKKHLKAVDVNMNKMPDAAMTLAVVALFADGPTAIRDVASWRVKETERMVAIRTELTKLGASVEEGPDYCIITPPEKLNITAIDTYDDHRMAMAFSLAACADVPVTIRDPGCTRKTFPNYFDVLSTFVKN
modifications: This sequence is synthesized in lab.
notes: rice EPSPS with G172A, P177S, V208A, L264H, V403A and R514K mutations
B3: 2-47: rice EPSPS with G172A, M175A, P177S, M258L, K356E, V403A and F512I mutations (protein)
chain: MAAKAEEIVLQPIREISGAVQLPGSKSLSNRILLLSALSEGTTVVDNLLNSEDVHYMLEALKALGLSVEADKVAKRAVVVGCGGKFPVEKDAKEEVQLFLGNAATAARSLTAAVTAAGGNATYVLDGVPRMRERPIGDLVVGLKQLGADVDCFLGTECPPVRVKGIGGLPGGKVKLSGSISSQYLSALLLAAPLALGDVEIEIIDKLISIPYVEMTLRLMERFGVKAEHSDSWDRFYIKGGQKYKSPGNAYVEGDASSASYFLAGAAITGGTVTVQGCGTTSLQGDVEFAEVLEMMGAKVTWTDTSVTVTGPPREPYGKKHLKAVDVNMNKMPDAAMTLAVVALFADGPTAIRDVASWRVKETERMVAIRTELTKLGASVEEGPDYCIITPPEKLNITAIDTYDDHRMAMAFSLAACADVPVTIRDPGCTRKTFPNYFDVLSTIVRN
modifications: This sequence is synthesized in lab.
notes: rice EPSPS with G172A, M175A, P177S, M258L, K356E, V403A and F512I mutations
B4: SEQ ID NO:23: rice EPSPS with A73S, G172A, P177S, L214F and V403A mutations; sample code not printed (protein)
chain: MAAKSEEIVLQPIREISGAVQLPGSKSLSNRILLLSALSEGTTVVDNLLNSEDVHYMLEALKALGLSVEADKVAKRAVVVGCGGKFPVEKDAKEEVQLFLGNAATAMRSLTAAVTAAGGNATYVLDGVPRMRERPIGDLVVGLKQFGADVDCFLGTECPPVRVKGIGGLPGGKVKLSGSISSQYLSALLMAAPLALGDVEIEIIDKLISIPYVEMTLRLMERFGVKAEHSDSWDRFYIKGGQKYKSPGNAYVEGDASSASYFLAGAAITGGTVTVQGCGTTSLQGDVKFAEVLEMMGAKVTWTDTSVTVTGPPREPYGKKHLKAVDVNMNKMPDAAMTLAVVALFADGPTAIRDVASWRVKETERMVAIRTELTKLGASVEEGPDYCIITPPEKLNITAIDTYDDHRMAMAFSLAACADVPVTIRDPGCTRKTFPNYFDVLSTFVRN
modifications: This sequence is synthesized in lab.
B5: 2-5: rice EPSPS with E163K, G172A, P177S, A216V, L253M, H389R and V403A mutations (protein)
chain: MAAKAEEIVLQPIREISGAVQLPGSKSLSNRILLLSALSEGTTVVDNLLNSEDVHYMLEALKALGLSVEADKVAKRAVVVGCGGKFPVEKDAKEKVQLFLGNAATAMRSLTAAVTAAGGNATYVLDGVPRMRERPIGDLVVGLKQLGVDVDCFLGTECPPVRVKGIGGLPGGKVKLSGSISSQYMSALLMAAPLALGDVEIEIIDKLISIPYVEMTLRLMERFGVKAEHSDSWDRFYIKGGQKYKSPGNAYVEGDASSASYFLAGAAITGGTVTVQGCGTTSLQGDVKFAEVLEMMGAKVTWTDTSVTVTGPPREPYGKKRLKAVDVNMNKMPDAAMTLAVVALFADGPTAIRDVASWRVKETERMVAIRTELTKLGASVEEGPDYCIITPPEKLNITAIDTYDDHRMAMAFSLAACADVPVTIRDPGCTRKTFPNYFDVLSTFVRN
modifications: This sequence is synthesized in lab.
notes: rice EPSPS with E163K, G172A, P177S, A216V, L253M, H389R and V403A mutations
B6: 2-46: rice EPSPS with G172A, P177S, N246D and V403A mutations (protein)
chain: MAAKAEEIVLQPIREISGAVQLPGSKSLSNRILLLSALSEGTTVVDNLLNSEDVHYMLEALKALGLSVEADKVAKRAVVVGCGGKFPVEKDAKEEVQLFLGNAATAMRSLTAAVTAAGGNATYVLDGVPRMRERPIGDLVVGLKQLGADVDCFLGTECPPVRVKGIGGLPGGKVKLSGSISSQYLSALLMAAPLALGDVEIEIIDKLISIPYVEMTLRLMERFGVKAEHSDSWDRFYIKGGQKYKSPGDAYVEGDASSASYFLAGAAITGGTVTVQGCGTTSLQGDVKFAEVLEMMGAKVTWTDTSVTVTGPPREPYGKKHLKAVDVNMNKMPDAAMTLAVVALFADGPTAIRDVASWRVKETERMVAIRTELTKLGASVEEGPDYCIITPPEKLNITAIDTYDDHRMAMAFSLAACADVPVTIRDPGCTRKTFPNYFDVLSTFVRN
modifications: This sequence is synthesized in lab.
notes: rice EPSPS with G172A, P177S, N246D and V403A mutations
B7: 1-599: rice EPSPS with A73G, L134F, G172A, P177S, G265V, S374R and V403A mutations (protein)
chain: MAAKGEEIVLQPIREISGAVQLPGSKSLSNRILLLSALSEGTTVVDNLLNSEDVHYMLEALKALGFSVEADKVAKRAVVVGCGGKFPVEKDAKEEVQLFLGNAATAMRSLTAAVTAAGGNATYVLDGVPRMRERPIGDLVVGLKQLGADVDCFLGTECPPVRVKGIGGLPGGKVKLSGSISSQYLSALLMAAPLALVDVEIEIIDKLISIPYVEMTLRLMERFGVKAEHSDSWDRFYIKGGQKYKSPGNAYVEGDASSASYFLAGAAITGGTVTVQGCGTTSLQGDVKFAEVLEMMGAKVTWTDTRVTVTGPPREPYGKKHLKAVDVNMNKMPDAAMTLAVVALFADGPTAIRDVASWRVKETERMVAIRTELTKLGASVEEGPDYCIITPPEKLNITAIDTYDDHRMAMAFSLAACADVPVTIRDPGCTRKTFPNYFDVLSTFVRN
modifications: This sequence is synthesized in lab.
notes: rice EPSPS with A73G, L134F, G172A, P177S, G265V, S374R and V403A mutations
B8: SEQ ID NO:19: rice EPSPS with A73K, D114H, V136M, K161E, G172A, P177S, A260T and V403A mutations; sample code not printed (protein)
chain: MAAKKEEIVLQPIREISGAVQLPGSKSLSNRILLLSALSEGTTVVHNLLNSEDVHYMLEALKALGLSMEADKVAKRAVVVGCGGKFPVEKDAEEEVQLFLGNAATAMRSLTAAVTAAGGNATYVLDGVPRMRERPIGDLVVGLKQLGADVDCFLGTECPPVRVKGIGGLPGGKVKLSGSISSQYLSALLMATPLALGDVEIEIIDKLISIPYVEMTLRLMERFGVKAEHSDSWDRFYIKGGQKYKSPGNAYVEGDASSASYFLAGAAITGGTVTVQGCGTTSLQGDVKFAEVLEMMGAKVTWTDTSVTVTGPPREPYGKKHLKAVDVNMNKMPDAAMTLAVVALFADGPTAIRDVASWRVKETERMVAIRTELTKLGASVEEGPDYCIITPPEKLNITAIDTYDDHRMAMAFSLAACADVPVTIRDPGCTRKTFPNYFDVLSTFVRN
modifications: This sequence is synthesized in lab.

The molecules below were run on Escherichia coli DH5α with EPSPS gene knocked out (assay: Resistance test of rice EPSPS mutants from error-prone PCR on OsGPV: colony growth on medium with 0, 100 mM and 125 mM glyphosate (FIG. 7)). Details: 125 mM glyphosate pressure, FIG. 7.
Type: cell-based
Excerpt: In order to further improve the glyphosate resistance and develop highly resistant rice EPSPS mutants that can meet commercial production requirements, we used OsGPV as a template to perform random mutations, with high-concentration glyphosate screening, and to identify EPSPS mutant that can improve the glyphosate resistance.
We used OsGPV(SEQ ID NO:6) as a template to perform error-prone PCR. (With GeneMorph II Random Mutagenesis Kit, #200550, Agilent Technologies).
a) The recovered product was digested with EcoRI and SbfI, and then ligated to the pKED2 vector after the same double digestion with T4 DNA ligase to obtain the ligation product to obtain the vector carrying the rice EPSPS gene mutant.
b) Transformed the above vector into Escherichia coli DH5α with EPSPS gene knocked out. The transformation steps were as follows: add the above ligation product to 50 μl E. coli DH5α competent cells with EPSPS gene knocked out, mix well and incubate on ice for 30 min, then after a heat shock at 42° C. for 90 s, immediately place it in an ice bath on ice for 2 min after taking it out. After the ice bath, add 500 μl of LB liquid medium and resuscitate at 37° C. at 180 r/min for 45 min. The transformed Escherichia coli was a mutant library expressing rice EPSPS mutant genes obtained on the template basis of OsGPV.
5) Centrifuged the transformed product obtained above at 3000 rpm for 5 min, discarded the supernatant, then resuspended it in 1 ml M9 liquid medium, added 200 μl M9 liquid medium to resuspend and inoculated it on an M9 plate containing 75 mM glyphosate. Incubated at 37 degrees for 24 hours.
Pick and saved the single colonies grown in the above screening plates, and conduct further resistance identification and sequencing
ii. Resistance test of rice mutants. In this example, the wild-type rice EPSPS gene OsWT, the most widely used commercial glyphosate-resistant gene CP4EPSPS, the rice mutantOsTIPS, which had the same mutation type with commercial glyphosate-resistant corn GA21, and the rice mutant OsGPV with the highly glyphosate-resistant rice EPSPS mutant gene obtained in this study were transformed as control, and the newly obtained rice EPSPS mutants were transformed as the experimental group, and the glyphosate resistance among the control and the mutants were compared. The monoclonal bacteria of the control group and the experimental group were respectively inoculated into a medium containing 0, 100 mM and 125 mM glyphosate, and the growth of colonies in each group was observed.

Q: Which “colony growth status compared with OsGPV” value does the source give for B1 here?
A: significantly higher than OsGPV

Q: With B2 as the molecule, how does the “colony growth status compared with OsGPV” value read?
A: significantly higher than OsGPV

Q: How did the “colony growth status compared with OsGPV” value turn out when B3 was run?
A: significantly higher than OsGPV

Q: How did the “colony growth status compared with OsGPV” value turn out when B4 was run?
A: significantly higher than OsGPV

Q: How did the “colony growth status compared with OsGPV” value turn out when B5 was run?
A: significantly higher than OsGPV

Q: Which “colony growth status compared with OsGPV” value does the source give for B6 here?
A: significantly higher than OsGPV

Q: B7 was tested. Which “colony growth status compared with OsGPV” value did it give?
A: significantly higher than OsGPV

Q: For B8, which “colony growth status compared with OsGPV” value is on record?
A: significantly higher than OsGPV
